Data reported in the supplement of paper PMC7877785.
± gives the uncertainty stated by the source.

Assay: self-splicing fitness, log relative to wild type (ln ratio); higher = more splicing; Tetrahymena group I intron in knt gene, E. coli kanamycin selection, DiMSum; sequences stand for … in CUCUCU…GGAGGGAAAAGUUAUCAGGCAUGCACCUGGUAGCUAGUCUUUAAACCAAUAGAUUGCAUCGGUUUAAAAGGCAAGACCGUCAAAUUGCGGGAAAGGGGUCAACAGCCGUUCAGUACCAAGUCUCAGGGGAAACUUUGAGAUGGCCUUGCAAAGGGUAUGGUAAUAAGCUGACGGACAUGGUCCUAACCACGCAGCCAAGUCCUAAGUCAACAGAUCUUCUGUUGAUAUGGAUGCAGUUCACAGACUAAAUGUCGGUCGGGGAAGAUGUAUUCUUCUCAUAAGAUAUAGUCGGACCUCUCCUUAAUGGGAGCUAGCGGAUGAAGUGAUGCAACACUGGAGCCGCUGGGAACUAAUUUGUAUGCGAAAGUAUAUUGAUUAGUUUUGGAGUACUCGUGGUCG
Summary of the method: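 Library with all eight P1ex-region intron nucleotides randomised, intron inside the knt kanamycin-resistance gene on pET-22b(+), in E. coli BL21(DE3). Cells grew overnight at 37°C or 30°C on LB agar with or without 25 μg/mL kanamycin (plus 100 μg/mL carbenicillin, 50 μM IPTG, 0.2% rhamnose), in six replicate transformations. Pooled colonies were amplicon-sequenced on Illumina HiSeq 2500. DiMSum fitness is the error-weighted combination of wild-type-normalised replicate fold changes, kanamycin versus none.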

| Sequence | self-splicing fitness (ln) (30 °C) | self-splicing fitness (ln) (37 °C) |
| --- | --- | --- |
| UGUUAGCAAUAUUACGUCCG | -0.342 ± 0.15 | 0.113 ± 0.22 |
| GGACAGCAAUAUUACGGCAA | -1.32 ± 0.12 | -0.645 ± 0.12 |
| GGCCAGCAAUAUUACGACCA | -1.46 ± 0.1 | -0.797 ± 0.11 |
| CGGUAGCAAUAUUACGGACA | -1.91 ± 0.32 | -1.34 ± 0.29 |
| CGGCAGCAAUAUUACGGGUA | -3.66 ± 0.25 | -2.84 ± 0.19 |
| GAGGAGCAAUAUUACGUGAU | – | -2.02 ± 0.27 |
| CUGGAGCAAUAUUACGCGUC | -3.41 ± 0.27 | -1.76 ± 0.27 |
| CAUAAGCAAUAUUACGCUCU | -2.58 ± 0.19 | -1.3 ± 0.12 |
| GCACAGCAAUAUUACGAAAG | -3.79 ± 0.15 | -1.91 ± 0.11 |
| ACUAAGCAAUAUUACGGCCU | -0.171 ± 0.073 | -0.475 ± 0.087 |
| GUAGAGCAAUAUUACGUGAU | -2.29 ± 0.2 | -1.36 ± 0.19 |
| AAUCAGCAAUAUUACGCGGU | -2.35 ± 0.12 | -1.14 ± 0.14 |
| GCUGAGCAAUAUUACGGAAC | -2.25 ± 0.3 | -0.857 ± 0.3 |
| GAGCAGCAAUAUUACGCCGU | -1.39 ± 0.12 | -0.525 ± 0.19 |
| CCCUAGCAAUAUUACGUACA | -2.75 ± 0.19 | -2.87 ± 0.22 |
| GAGAAGCAAUAUUACGGUGC | -2.81 ± 0.19 | 0.59 ± 0.21 |
| CCGCAGCAAUAUUACGGCUC | -4.29 ± 0.21 | -1.34 ± 0.12 |
| CGCCAGCAAUAUUACGAAGC | – | -1.71 ± 0.19 |
| CCUCAGCAAUAUUACGCACA | -3.09 ± 0.48 | -2.02 ± 0.26 |
| CUGAAGCAAUAUUACGUCCA | -1.93 ± 0.25 | – |
| CACUAGCAAUAUUACGAGUC | -2.82 ± 0.21 | -2.01 ± 0.19 |
| UUGUAGCAAUAUUACGGCAU | -0.835 ± 0.096 | 0.641 ± 0.11 |
| GCUCAGCAAUAUUACGCAUG | -1.66 ± 0.1 | -1.49 ± 0.1 |
| UUUUAGCAAUAUUACGCCUG | -0.393 ± 0.22 | 0.333 ± 0.3 |
| ACGCAGCAAUAUUACGCGAU | -3.38 ± 0.16 | -2.22 ± 0.16 |
| CAUUAGCAAUAUUACGGGCU | -1.68 ± 0.2 | -2.7 ± 0.3 |

| Sequence | self-splicing fitness (ln) (30 °C) | self-splicing fitness (ln) (37 °C) |
| --- | --- | --- |
| ACGGAGCAAUAUUACGCGCU | -3.23 ± 0.3 | -1.17 ± 0.21 |
| CAUUAGCAAUAUUACGGCGA | -2.09 ± 0.3 | -3.32 ± 0.47 |
| UCGUAGCAAUAUUACGGGUG | -1.66 ± 0.11 | -2.66 ± 0.14 |
| AAAAAGCAAUAUUACGCAGU | -1.99 ± 0.15 | -2.19 ± 0.2 |
| CCUAAGCAAUAUUACGCCCA | -3.67 ± 0.33 | -2.02 ± 0.33 |
| UCUUAGCAAUAUUACGACUC | – | -1.03 ± 0.5 |
| AGGUAGCAAUAUUACGCAAC | -3.73 ± 0.042 | -2.61 ± 0.049 |
| AACGAGCAAUAUUACGCCUA | -3.36 ± 0.41 | -1.08 ± 0.3 |
| GACCAGCAAUAUUACGCAGA | -1.57 ± 0.11 | -0.378 ± 0.093 |
| CACAAGCAAUAUUACGGCCU | -4.49 ± 0.24 | -2.74 ± 0.24 |
| GUUCAGCAAUAUUACGUUGG | -2.92 ± 0.17 | -1.62 ± 0.15 |
| GACGAGCAAUAUUACGUCCG | -3.22 ± 0.27 | -2.69 ± 0.36 |
| GCAAAGCAAUAUUACGAGGU | -3.56 ± 0.25 | -3.24 ± 0.33 |
| CGAAAGCAAUAUUACGCCAC | -2.32 ± 0.37 | – |
| UCCAAGCAAUAUUACGCCCA | -0.733 ± 0.14 | -1.07 ± 0.21 |
| CAGUAGCAAUAUUACGCAGA | -2.68 ± 0.37 | -2.43 ± 0.3 |
| GGUAAGCAAUAUUACGGCGG | -2.55 ± 0.24 | -0.84 ± 0.18 |
| UAUCAGCAAUAUUACGAGCA | -0.827 ± 0.084 | -0.124 ± 0.11 |
| GCCUAGCAAUAUUACGAUUG | -2.49 ± 0.23 | -2.32 ± 0.26 |
| ACCCAGCAAUAUUACGGAGU | -3.7 ± 0.14 | -1.8 ± 0.1 |
| UUCCAGCAAUAUUACGUCUU | -2.64 ± 0.15 | -2.27 ± 0.2 |
| UGAAAGCAAUAUUACGCAGG | -2.65 ± 0.17 | -1.42 ± 0.2 |
| GAGAAGCAAUAUUACGAUUG | -2.76 ± 0.22 | -1.49 ± 0.23 |
| CUCCAGCAAUAUUACGACAU | -4.008 ± 0.026 | -2.95 ± 0.039 |
| GAAUAGCAAUAUUACGUGUG | -2.23 ± 0.07 | -1.52 ± 0.073 |
| AAGUAGCAAUAUUACGUCGA | -1.34 ± 0.1 | -1.07 ± 0.11 |

| Sequence | self-splicing fitness (ln) (30 °C) | self-splicing fitness (ln) (37 °C) |
| --- | --- | --- |
| GUGUAGCAAUAUUACGUACA | -1.49 ± 0.2 | -1.87 ± 0.28 |
| UCGUAGCAAUAUUACGUCCC | -2.74 ± 0.3 | – |
| GGCUAGCAAUAUUACGGUAG | -2.31 ± 0.27 | -0.259 ± 0.23 |
| CUUUAGCAAUAUUACGCGUC | -4.35 ± 0.3 | -2.85 ± 0.22 |
| UGAUAGCAAUAUUACGCUCG | -0.235 ± 0.13 | 0.0592 ± 0.21 |
| GCGUAGCAAUAUUACGAGCG | -0.887 ± 0.15 | -1.62 ± 0.17 |
| GCUAAGCAAUAUUACGCGUC | -0.276 ± 0.14 | -2.47 ± 0.19 |
| AUACAGCAAUAUUACGCAUU | -1.85 ± 0.088 | -1.4 ± 0.11 |
| UUCUAGCAAUAUUACGGCGA | -0.698 ± 0.14 | 0.493 ± 0.18 |
| AGGGAGCAAUAUUACGUCAA | -3.37 ± 0.44 | -2.52 ± 0.45 |
| AUUCAGCAAUAUUACGAACG | -0.206 ± 0.085 | 0.232 ± 0.13 |
| CAGGAGCAAUAUUACGCAGG | -2.36 ± 0.078 | -1.37 ± 0.076 |
| UAUAAGCAAUAUUACGACCA | -0.816 ± 0.092 | 0.038 ± 0.12 |
| UGAUAGCAAUAUUACGAAUU | -4.02 ± 0.46 | -2.64 ± 0.23 |
| CUUGAGCAAUAUUACGUCAC | -3.37 ± 0.23 | -2.73 ± 0.31 |
| UGUUAGCAAUAUUACGACAC | -3.43 ± 0.47 | -2.08 ± 0.43 |
| GAAUAGCAAUAUUACGACCC | 0.178 ± 0.39 | – |
| GAGAAGCAAUAUUACGUUCU | -4 ± 0.36 | -2.01 ± 0.23 |
| GACAAGCAAUAUUACGGACA | -1.33 ± 0.14 | -0.153 ± 0.13 |
| GGUGAGCAAUAUUACGCUUU | -2.63 ± 0.4 | -3.04 ± 0.47 |
| GACCAGCAAUAUUACGUAGG | -2.31 ± 0.075 | -1.62 ± 0.09 |
| AGCUAGCAAUAUUACGGGAA | -3.13 ± 0.28 | -1.67 ± 0.22 |
| UAUCAGCAAUAUUACGGGAG | -1.83 ± 0.087 | -1.17 ± 0.098 |
| CCAGAGCAAUAUUACGCCUC | -3.12 ± 0.31 | 0.134 ± 0.26 |
| AAUCAGCAAUAUUACGCAAC | -1.32 ± 0.11 | -0.666 ± 0.13 |
